Measured values as given in article PMC6353796, “Thermostable Branched-Chain Amino Acid Transaminases From the Archaea Geoglobus acetivorans and Archaeoglobus fulgidus: Biochemical and Structural Characterization” (Frontiers in Bioengineering and Biotechnology, 2019).
Values joined by “and” are separate entries in the source; they are usually repeats but may differ in a detail not shown here. Equal values may be shown once.

Biological target: the molecule itself
Assay: SEC; AF0933 on Superdex 200 HiLoad (1.6 x 60 cm) in 50 mM Tris-HCl, pH 7.5, 500 mM NaCl, 0.05 mM PLP; native molecular mass by size exclusion

B1: AF0933, branched-chain amino acid transaminase (BCAT) from Archaeoglobus fulgidus (enzyme)
chain: MLYVYMDGEFVPENEAKVSIFDHGFLYGDGVFEGIRAYNGRVFRLKEHIDRLYDSAKAIDLEIPITKEEFMEIILETLRKNNLRDAYIRPIVTRGIGDLGLDPRKCQNPSIIVITKPWGKLYGDLYEKGLTAITVAVRRNSFDALPPNIKSLNYLNNILAKIEANAKGGDEAIFLDRNGYVSEGSGDNIFVVKNGAITTPPTINNLRGITREAVIEIINRLGIPFKETNIGLYDLYTADEVFVTGTAAEIAPIVVIDGRKIGDGKPGEITRKLMEEFSKLTESEGVPIYE
modifications: PLP covalently bound (Schiff base, internal aldimine) to Lys150
notes: Class IV branched-chain amino acid transaminase AF0933 of Archaeoglobus fulgidus; subunit 32.4 kDa, 290 amino acids; synthetic gene optimised for E. coli; Mainly homo-hexamer in solution with a small dimeric fraction; hexamer in the crystal; also called AF0933_holo; AF0933_GABC; source: E. coli Rosetta (DE3)-pLysS (pLATE51-AF0933), purified (heat step 70°C, Ni-NTA, Superdex 200)
- stoichiometry N: 6 and 2
